Measured values as given in the supplement of paper PMC10126150.
± gives the standard deviation of the averaged measurements.

System: ATP
Assay: switch fluorescence ratio, 500 uM ATP over buffer (Cy3 cluster intensity, sum of 5 cycles each) (fold (ratio)); higher = stronger signal-on switching upon ATP binding; sequences stand for … in TCGTCGGCAGCGTCAGATGTGTATAAGAGACAGTTTTTTTTTTTTTTTTTTTTTTTTT…TC
Conditions: aptamer strand: ATP DNA aptamer (quencher-CACCTGGGGGAGTATTGCGGAGGAAGG + anchor), 100 nM annealed; ATP concentration: 500 uM
Method in brief: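 The quencher-labelled ATP aptamer, at 100 nM, was annealed to Cy3-labelled switching-strand clusters on a modified Illumina MiSeq flow-cell. The clusters were imaged in selection buffer, then after 15 min with 500 uM ATP at 22 °C, and this buffer/ATP cycle ran five times with NaOH stripping and re-annealing between runs. Per-cluster fluorescence ratios, summed target-cycle over summed buffer-cycle Cy3 intensity, were averaged per switch-domain sequence. Clusters outside 100-1000 RFU were excluded.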
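Note: ATP exposure 15 min at 22 °C before imaging.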

| Sequence | switch fluorescence ratio |
| --- | --- |
| GGGTGCGGTT | 1.011 ± 0.01 |
| GGGTGCTCGG | 1 ± 0.019 |
| GGGTGCTGCG | 1.01 ± 0.037 |
| GGGTGCTGTT | 1.02 ± 0.036 |
| GGGTGGCAGG | 1.01 ± 0.013 |
| GGGTGGCCAA | 0.981 ± 0.012 |
| GGGTGGGCCC | 0.995 ± 0.041 |
| GGGTGGGCCT | 0.989 ± 0.042 |
| GGGTGGGGGA | 1.03 ± 0.028 |
| GGGTGGGGTG | 1 ± 0.018 |
| GGGTGGGTAT | 1 ± 0.027 |
| GGGTGGTCGG | 0.978 ± 0.032 |
| GGGTGTAGGA | 1.03 ± 0.065 |
| GGGTGTATTG | 1.01 ± 0.044 |
| GGGTGTGAGA | 1.04 ± 0.03 |
| GGGTGTTGTA | 1 ± 0.055 |
| GGGTTAAAGT | 0.994 ± 0.022 |
| GGGTTAAATG | 0.989 ± 0.028 |
| GGGTTAAGAG | 1.01 ± 0.02 |
| GGGTTAATGA | 1 ± 0.048 |
| GGGTTAATGT | 1.01 ± 0.061 |
| GGGTTACTGG | 1.002 ± 0.0021 |

| Sequence | switch fluorescence ratio |
| --- | --- |
| GGGTTAGACG | 1.01 ± 0.011 |
| GGGTTAGAGT | 0.993 ± 0.025 |
| GGGTTAGATT | 0.993 ± 0.06 |
| GGGTTATAGT | 1.01 ± 0.017 |
| GGGTTATCAC | 0.984 ± 0.0095 |
| GGGTTATGAG | 0.977 ± 0.06 |
| GGGTTATGGG | 1.005 ± 0.008 |
| GGGTTATTGT | 1 ± 0.016 |
| GGGTTCAAAC | 1 ± 0.039 |
| GGGTTCAATC | 1.04 ± 0.014 |
| GGGTTCAGGC | 1.05 ± 0.059 |
| GGGTTCCGGG | 1.02 ± 0.021 |
| GGGTTCGTTC | 0.989 ± 0.054 |
| GGGTTCTAGG | 0.999 ± 0.043 |
| GGGTTGAAGA | 0.971 ± 0.04 |
| GGGTTGAATA | 0.953 ± 0.056 |
| GGGTTGCCAG | 0.997 ± 0.025 |
| GGGTTGCCGT | 0.977 ± 0.036 |
| GGGTTGGAAG | 1.02 ± 0.067 |
| GGGTTGGATT | 0.991 ± 0.023 |
| GGGTTGGCTC | 0.994 ± 0.041 |
| GGGTTGGGAC | 1.01 ± 0.051 |

| Sequence | switch fluorescence ratio |
| --- | --- |
| GGGTTGGGTG | 1.01 ± 0.042 |
| GGGTTGGTGT | 0.978 ± 0.015 |
| GGGTTGGTTG | 0.9929 ± 0.0052 |
| GGGTTGTGCT | 0.953 ± 0.015 |
| GGGTTGTTTG | 0.992 ± 0.036 |
| GGGTTTAAGG | 1.02 ± 0.015 |
| GGGTTTACAA | 0.989 ± 0.029 |
| GGGTTTACGG | 1.02 ± 0.017 |
| GGGTTTACTT | 0.99844 ± 0.00094 |
| GGGTTTATGT | 0.984 ± 0.029 |
| GGGTTTATTG | 0.998 ± 0.049 |
| GGGTTTCGAC | 1.02 ± 0.013 |
| GGGTTTCGCG | 1.01 ± 0.023 |
| GGGTTTCGGG | 0.9779 ± 0.0092 |
| GGGTTTGAAA | 1.01 ± 0.067 |
| GGGTTTGGGC | 1.01 ± 0.024 |
| GGGTTTGTGG | 0.984 ± 0.023 |
| GGGTTTTCCA | 1.01 ± 0.021 |
| GGGTTTTGGC | 1 ± 0.066 |
| GGGTTTTTAT | 0.989 ± 0.027 |
| GGGTTTTTGC | 1.04 ± 0.045 |
| GGGTTTTTTA | 0.988 ± 0.022 |

| Sequence | switch fluorescence ratio |
| --- | --- |
| GGGTTTTTTC | 0.9798 ± 0.0046 |
| GGTAAACAAA | 1.026 ± 0.0079 |
| GGTAAATTGA | 1.04 ± 0.03 |
| GGTAACATCG | 1.003 ± 0.0066 |
| GGTAACGTGA | 1.01 ± 0.023 |
| GGTAAGTCTA | 0.9832 ± 0.0059 |
| GGTAATATAC | 1.057 ± 0.0076 |
| GGTAATGCGG | 1.01 ± 0.041 |
| GGTAATTTTG | 0.996 ± 0.061 |
| GGTACAAGAT | 1.03 ± 0.013 |
| GGTACACACA | 1.26 ± 0.061 |
| GGTACCAAAA | 0.992 ± 0.024 |
| GGTACGCG | 0.982 ± 0.027 |
| GGTACGGAGA | 1.02 ± 0.011 |
| GGTACGGTTT | 1.04 ± 0.02 |
| GGTACTAATA | 1.023 ± 0.007 |
| GGTACTACCG | 1.03 ± 0.044 |
| GGTACTCATT | 0.994 ± 0.034 |
| GGTACTGGGG | 1.06 ± 0.015 |
